The results in this text go back to patent US20240343803A1 (SHANDONG SIMCERE BIOPHARMACEUTICAL, published 2024).

Changes are numbered by the printed parent chain.

T1: human PVRIG on FlpinCHO-PVRIG cells (human, UniProt Q6DKI7 41-326)
T1 construct: whole, on cells
T1 sequence (looked up): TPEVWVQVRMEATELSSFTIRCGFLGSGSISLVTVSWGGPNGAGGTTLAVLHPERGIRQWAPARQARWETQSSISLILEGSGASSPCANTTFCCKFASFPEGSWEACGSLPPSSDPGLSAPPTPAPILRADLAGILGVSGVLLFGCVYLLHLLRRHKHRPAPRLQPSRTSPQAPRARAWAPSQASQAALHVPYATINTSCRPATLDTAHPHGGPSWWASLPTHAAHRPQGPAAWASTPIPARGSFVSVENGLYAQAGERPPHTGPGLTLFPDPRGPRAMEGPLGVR

T2: cynomolgus monkey PVRIG on FlpinCHO-cyno PVRIG cells (cynomolgus monkey, UniProt A0A2K5WVV8 41-322)
T2 construct: whole, on cells
T2 sequence: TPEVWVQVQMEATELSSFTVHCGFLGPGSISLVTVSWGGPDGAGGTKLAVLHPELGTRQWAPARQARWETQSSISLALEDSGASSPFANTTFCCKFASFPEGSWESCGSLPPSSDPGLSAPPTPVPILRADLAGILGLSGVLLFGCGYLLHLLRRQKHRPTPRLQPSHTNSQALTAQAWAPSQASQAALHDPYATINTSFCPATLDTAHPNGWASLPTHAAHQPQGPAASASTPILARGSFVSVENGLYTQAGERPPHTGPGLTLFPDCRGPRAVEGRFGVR

T3: human PVRIG-his (AcroBiosystems, Cat NO. PVG-H52H4) (human, UniProt Q6DKI7 41-171, limits assumed)
T3 construct: also called human PVRIG protein
T3 sequence (looked up): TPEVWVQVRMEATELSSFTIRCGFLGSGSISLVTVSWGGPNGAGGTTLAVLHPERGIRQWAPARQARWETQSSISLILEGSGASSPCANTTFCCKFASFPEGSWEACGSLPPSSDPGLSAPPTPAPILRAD

B1: PVRIG-A50 (Fc fusion)
chain: EVQLVESGGGLVQPGGSLRLSCAASGFTFSYYDMSWVRQAPGKGLEWVSTINSNGGRTSYVDSVKGRFTISRDNTKNTLYLQMNSLKPEDTAVYYCVEGDPHNFGLENLSLRDFGSWGQGTQVTVSS
notes: heavy chain antibody VHH-hinge-CH2-CH3, human IgG1 constant part; also called PVRIG-50; not shown: human IgG1 hinge-CH2-CH3
B2: PVRIG-A50-H1a (Fc fusion)
chain: B1 chain with N54D, T75S, K87R, P88A, Q122M
notes: humanized variant of PVRIG-A50; also called A50.VH1a; not shown: constant part not restated for the humanized forms; parents are VHH-hinge-CH2-CH3 of human IgG1; detected by anti-human
B3: PVRIG-A50-H2a (Fc fusion)
chain: B1 chain with G55A, K87R, P88A, N108S, Q122M
notes: humanized variant of PVRIG-A50; also called A50.VH2a; not shown: constant part not restated for the humanized forms; parents are VHH-hinge-CH2-CH3 of human IgG1; detected by anti-human
B4: PVRIG-A50-H1e (Fc fusion)
chain: B1 chain with G55A, T75S, K87R, P88A, N108S, Q122M
notes: humanized variant of PVRIG-A50; also called VH1e; not shown: constant part not restated for the humanized forms; parents are VHH-hinge-CH2-CH3 of human IgG1; detected by anti-human
B5: PVRIG-A50-H1b (Fc fusion)
chain: B1 chain with N54D, T75S, K87R, P88A, N108S, Q122M
notes: humanized variant of PVRIG-A50; also called A50.VH1b; not shown: constant part not restated for the humanized forms; parents are VHH-hinge-CH2-CH3 of human IgG1; detected by anti-human
B6: PVRIG-A50-H1c (Fc fusion)
chain: B1 chain with N54D, T75S, K87R, P88A, S110A, Q122M
notes: humanized variant of PVRIG-A50; also called A50.VH1c; not shown: constant part not restated for the humanized forms; parents are VHH-hinge-CH2-CH3 of human IgG1; detected by anti-human
B7: PVRIG-A105 (Fc fusion)
chain: EVQLVESGGGLVQAGGSLRLSCAASGRTFDRHTMTWFRQAPGKEREFVATASRIPGDTYYSHSVKGRFTISRDNAKNTVYLQLNNLKPEDTAVYYCAATSAYCSEVDCYEKGSWYDNWGQGIQVTVSS
notes: heavy chain antibody VHH-hinge-CH2-CH3, human IgG1 constant part; not shown: human IgG1 hinge-CH2-CH3

The first assay addresses T1, human PVRIG on FlpinCHO-PVRIG cells. Nature of the assay: FACS, FlpinCHO-PVRIG cells. The method, then:
(§1) The Ham's F12 (Gibico, 21127-022) complete medium containing 10% FBS was then added to terminate the digestion and acquire cell suspension. After counting with a cell counter (Beckman Coulter, Vi-CELL), an appropriate amount of cell suspension was centrifuged at 350×g to remove the supernatant, washed twice with PBS, stained with Zombie violet (Biolegend, 423114) and incubated at room temperature for 20 minutes. After incubation, the cells were added with staining buffer (2% FBS+PBS) to stop staining, centrifuged at 350×g to remove the supernatant, washed twice and resuspended with staining buffer to a density of 2×10⁶ cells/mL. The cells were plated into a 96-well plate (50 μL of cell suspension per well) for further use. The antibodies were diluted from the highest concentration of 46 nM (two-fold concentration) with staining buffer by 3.3-fold serial dilution. The diluted antibodies were added to the well containing 50 μL of cell suspension. The plate was placed on a microplate shaker at 400 rpm for 1 minute to fully mix the antibodies and cells, and then incubated at 4° C. for 30 minutes. After the incubation, the cells were washed twice with staining buffer (200 μL per well) and centrifuged at 350×g for 5 minutes to discard the supernatant. The PE goat anti-human IgG Fc antibody (ebioscience, 12-4998-82) was diluted 250 times with staining buffer, added into the washed wells (100 μL per well), mixed well, and stained at 4° C. for 30 minutes. After staining, the cells were washed twice with staining buffer, finally resuspended with 200 μL staining buffer and analyzed by flow cytometry (BD, Canto II). The stronger the signal, the stronger the ability of the antibodies binds to PVRIG. An antibody binding curve was drawn with concentration of antibodies as the abscissa and the corresponding Mean Fluorescence Intensity (MFI) as the ordinate. The AUC value of the curve was calculated by using a Four Parameter Logistic Fit (GraphPadPrism9). The stronger the AUC value, the stronger the ability of the antibodies binds to FlpinCHO-PVRIG and FlpinCHO-cyno PVRIG. […] The binding activity of the antibodies was normalized to the positive control COM701-hIgG1 and SRF813-hIgG1.
In general terms: A flow cytometer gives signals particle by particle.
On to B1, for which the “AUC % to COM701-hIgG1” value was 73.4%, the “AUC % to SRF813-hIgG1” value worked out at 130% and the “AUC % to parental Ab” value was determined as 100%.

With B2, the “AUC % to COM701-hIgG1” value was 70.4%, the “AUC % to SRF813-hIgG1” value was found to be 125% and the “AUC % to parental Ab” value was determined as 96%.

Regarding B3, the “AUC % to COM701-hIgG1” value is 61.9%, the “AUC % to SRF813-hIgG1” value came out at 110% and the “AUC % to parental Ab” value was found to be 84.4%.

On to B4, for which the “AUC % to COM701-hIgG1” value was 60.3%, the “AUC % to SRF813-hIgG1” value amounted to 107% and the “AUC % to parental Ab” value is 82.2%.

Take B5: the “AUC % to COM701-hIgG1” value turned out to be 60.5%, the “AUC % to SRF813-hIgG1” value was 107% and the “AUC % to parental Ab” value was found to be 82.5%.

B6: the “AUC % to COM701-hIgG1” value is 69.2%, the “AUC % to SRF813-hIgG1” value turned out to be 122% and the “AUC % to parental Ab” value came to 94.2%.

As to B7, the “AUC % to COM701-hIgG1” value was determined as 124%, the “AUC % to SRF813-hIgG1” value worked out at 186% and the “AUC % to parental Ab” value amounted to 100%.

For a further assay, the target named is T2, cynomolgus monkey PVRIG on …. Nature of the assay: FACS, FlpinCHO-cyno PVRIG cells. The method, then: as §1, with “The” for “The Ham's F12 (Gibico, 21127-022) complete medium containing 10% FBS was then added to terminate the digestion and acquire cell suspension. After counting with a cell counter (Beckman Coulter, Vi-CELL), an appropriate amount of cell suspension was centrifuged at 350×g to remove the supernatant, washed twice with PBS, stained with Zombie violet (Biolegend, 423114) and incubated at room temperature for 20 minutes. After incubation, the cells were added with staining buffer (2% FBS+PBS) to stop staining, centrifuged at 350×g to remove the supernatant, washed twice and resuspended with staining buffer to a density of 2×10⁶ cells/mL. The cells were plated into a 96-well plate (50 μL of cell suspension per well) for further use. The”, “SRF813-hIgG1. The higher the percentage value, the stronger the binding ability of the antibodies.” for “SRF813-hIgG1.”
The methods refer to Example 19. The stronger the AUC value, the stronger the ability of the humanized antibodies binds to FlpinCHO-human/cyno PVRIG.
As for B1, the “AUC % to COM701-hIgG1” value worked out at 47.1%, the “AUC % to SRF813-hIgG1” value turned out to be 57.8% and the “AUC % to parental Ab” value was 100%.

As for B2, the “AUC % to COM701-hIgG1” value is 40.7%, the “AUC % to SRF813-hIgG1” value worked out at 50% and the “AUC % to parental Ab” value is 86.5%.

As for B3, the “AUC % to COM701-hIgG1” value was 42.4%, the “AUC % to SRF813-hIgG1” value turned out to be 52.1% and the “AUC % to parental Ab” value was 90.2%.

B4: the “AUC % to COM701-hIgG1” value stood at 43.3%, the “AUC % to SRF813-hIgG1” value was 53.2% and the “AUC % to parental Ab” value amounted to 92%.

Turning to B5, the “AUC % to COM701-hIgG1” value came to 34.4%, the “AUC % to SRF813-hIgG1” value stood at 42.2% and the “AUC % to parental Ab” value came to 73.1%.

Consider B6, for which the “AUC % to COM701-hIgG1” value stood at 38.8%, the “AUC % to SRF813-hIgG1” value came to 47.6% and the “AUC % to parental Ab” value stood at 82.5%.

In the case of B7, the “AUC % to COM701-hIgG1” value amounted to 87.5%, the “AUC % to SRF813-hIgG1” value was 108% and the “AUC % to parental Ab” value amounted to 100%.

In another assay the target is T3, human PVRIG-his (AcroBiosystems, Cat …). Put plainly: SPR (BIAcore), antibody captured on Protein A chip, human PVRIG-His analyte. The procedure: Biacore was used to detect the specific binding between anti-PVRIG antibody and human PVRIG protein. Protein A chip was used in the BIAcore assay. The time required for the chip to capture the diluted antibody and saturate the binding antigen to reach Rₘₐₓ (Maximum binding capacity, 50 RU) was measured by manual run. […] The affinity of antibody for antigen was measured by multi-cycle kinetics. In each cycle, the antibodies were injected prior to the injection of gradient concentraions of PVRIG proteins allowing the occurrence of antibody-antigen association and dissociation After each cycle, the Protein A chip was regenerated by Glycine, pH 1.5 (to remove the proteins on the chip). The affinity of antibody for antigen was calculated by BIAcore T200 analysis software.
The methods refer to Example 10.
As to B1, the Kd worked out at 0.043 nM, the koff worked out at 1.9e-05 s⁻¹ and the kon turned out to be 443000 M⁻¹ s⁻¹.

For the molecule B2, binding was characterised by a dissociation constant (Kd) of 0.0451 nM, the koff is 1.92e-05 s⁻¹ and the kon is 425000 M⁻¹ s⁻¹.

With B3, the Kd turned out to be 0.0585 nM, the koff was 1.61e-05 s⁻¹ and the on-rate (kon) was 276000 M⁻¹ s⁻¹.

The molecule B4 returned a dissociation constant Kd of 0.0551 nM, a koff of 1.46e-05 s⁻¹ and a kon of 265000 M⁻¹ s⁻¹.

B5 yielded a Kd of 0.0804 nM, a koff of 2.82e-05 s⁻¹ and a kon of 350000 M⁻¹ s⁻¹.

B6 displayed a Kd of 0.0462 nM, a koff of 2.03e-05 s⁻¹ and a kon of 438000 M⁻¹ s⁻¹.

B7 yielded a Kd of 0.675 nM, a koff of 0.000486 s⁻¹ and a kon of 721000 M⁻¹ s⁻¹.

In general, Kd refers to the concentration at which binding is half-saturated. As a reminder, the koff is the rate constant with which the complex falls apart. As a reminder, the kon is the second-order rate constant of association.
